From patent US20210324076A1 (AMPHIVENA THERAPEUTICS, published 2021) come the findings set out here.

Substitutions are numbered along the chain they refer to.

Sequences and labels used below:
B1: CD33/CD3 2×2 T-cell engager 17 (bispecific antibody)
chain: DIQMTQSPSSLSASVGDRVTITCRSSTGAVTTSNYANWVQQKPGKAPKALIGGTNKRAPGVPSRFSGSLIGDKATLTISSLQPEDFATYYCALWYSNLWVFGQGTKVEIKGGSGGSQVQLVQSGAEVKKPGESLKISCKGSGYSFTSYWIGWVRQMPGKGLEWMGIIYPGDSDTRYSPSFQGQVTISADKSISTAYLQWSSLKASDTAMYYCARHKRGSDAFDIWGQGTTVTVSSGGSGQSVLTQPPSVSGAPGQRVTISCTGSSSNIGAGYDVHWYQQLPGTAPKLLIYGNSNRPSGVPDRFSGSKSGTSASLAITGLQAEDEADYYCQSYDSSLSDVVFGGGTKLTVLGGSGGSEVQLVESGGGLVQPGGSLRLSCAASGFTFSTYAMNWVRQAPGKGLEWVGRIRSKYNNYATYYADSVKDRFTISRDDSKNSLYLQMNSLKTEDTAVYYCARHGNFGNSYVSYFAYWGQGTLVTVSSAAAGSHHHHHH
B2: CD33/CD3 2×2 T-cell engager 20 (bispecific antibody)
chain: DIQMTQSPSSLSASVGDRVTITCRSSTGAVTTSNYANWVQQKPGKAPKGLIGGTNKRAPGVPSRFSGSLIGTDFTLTISSLQPEDFATYYCALWYSNLWVFGQGTKVEIKGGSGGSQVQLVQSGAEVKKPGASVKVSCKASGYTFTSYYMHWVRQAPGQGLEWMGIINPSGGSTSYAQKFQGRVTMTRDTSTSTVYMELSSLRSEDTAVYYCARDVVPAAIDYYGMDVWGQGTTVTVSSGGSGQSVLTQPPSASGTPGQRVTISCSGSSSNIGSNTVNWYQQLPGTAPKLLIYSDNQRPSGVPDRFSGSKSGSSASLAISGLQSDDEADYYCATWDDSLNGAVFGGGTKLTVLGGSGGSEVQLVESGGGLVQPGGSLRLSCAASGFTFSTYAMNWVRQAPGKGLEWVGRIRSKYNNYATYYADSVKDRFTISRDDSKNSLYLQMNSLKTEDTAVYYCARHGNFGNSYVSWFAYWGQGTLVTVSSAAAGSHHHHHH
B3: CD33/CD3 2×2 T-cell engager 21 (bispecific antibody)
chain: DIQMTQSPSSLSASVGDRVTITCRSSTGAVTTSNYANWVQQKPGKAPKALIGGTNKRAPGVPSRFSGSLIGDKATLTISSLQPEDFATYYCALWYSNLWVFGQGTKVEIKGGSGGSQVQLVQSGAEVKKPGSSVKVSCKASGGTFSSYAISWVRQAPGQGLEWMGGIYPIFGSANYAQKFQGRVTITADESTSTAYMELSSLRSEDTAVYYCAREYYYDSSEWAFDIWGQGTLVTVSSGGSGQSVLTQPPSASGTPGQRVTISCSGSSSNIGSNIVNWYQQLPGTAPKLLIYSNNQRPSGVPDRFSGSKSGTSASLAISGLQSEDEADYYCAAWDDSLKGYVFGGGTKLTVLGGSGGSEVQLVESGGGLVQPGGSLRLSCAASGFTFSTYAMNWVRQAPGKGLEWVGRIRSKYNNYATYYADSVKDRFTISRDDSKNSLYLQMNSLKTEDTAVYYCARHGNFGNSYVSYFAYWGQGTLVTVSSAAAGSHHHHHH
B4: CD33/CD3 2×2 T-cell engager 24 (bispecific antibody)
chain: DIQMTQSPSSLSASVGDRVTITCRSSTGAVTTSNYANWVQQKPGKAPKALIGGTNKRAPGVPSRFSGSLIGDKATLTISSLQPEDFATYYCALWYSNLWVFGQGTKVEIKGGSGGSQVQLVQSGAEVKKPGSSVKVSCKASGGTFDSYAISWVRQAPGQGLEWMGGIIPIFGSAHYSQKFQGRVTITADESTSTAYMELSSLRSEDTAVYYCAREYYYDSSEWAFDIWGQGTLVTVSSGGSGQSVLTQPPSASGTPGQRVTISCSGSSSNIGDNVVNWYQQLPGTAPKLLIYSTNKRPSGVPDRFSGSKSGSSASLAISGLQSEDEADYYCAAWDDSLSAYVFGGGTKLTVLGGSGGSEVQLVESGGGLVQPGGSLRLSCAASGFTFSTYAMNWVRQAPGKGLEWVGRIRSKYNNYATYYADSVKDRFTISRDDSKNSLYLQMNSLKTEDTAVYYCARHGNFGNSYVSYFAYWGQGTLVTVSSAAAGSHHHHHH
B5: CD33/CD3 2×2 T-cell engager 22 (bispecific antibody)
chain: B3 chain with A149G, Y168I, N175H, I275T, N277K, P298S, T312S, K339N
B6: CD33/CD3 2×2 T-cell engager 05 (bispecific antibody)
chain: DIQMTQSPSSLSASVGDRVTITCRSSTGAVTTSNYANWVQQKPGKAPKGLIGGTNKRAPGVPARFSGSGSGTDFTLTISSLQPEDFATYYCALWYSNLWVFGQGTKVEIKGGSGGSQVQLVQSGAEVKKPGASVKVSCKASGYTFTSYDINWVRQAPGQGLEWMGWMNPNSGNTGFAQKFQGRVTMTRDTSTSTVYMELSSLRSEDTAVYYCARDRANTDYSFGMDVWGQGTLVTVSSGGSGGQSVLTQPPSASGTPGQRVTISCSGSRSNIGSNTVNWYQQLPGTAPKLLIYGNNQRPSGVPDRFSGSKSGTSASLAISGLQSEDEADYYCATWDDSLIGWVFGGGTKLTVLGGSGGSEVQLVESGGGLVQPGGSLRLSCAASGFTFSTYAMNWVRQAPGKGLEWVGRIRSKYNNYATYYADSVKDRFTISRDDSKNSLYLQMNSLKTEDTAVYYCARHGNFGNSYVSWFAYWGQGTLVTVSSAAAGSHHHHHH
B7: CD33/CD3 2×2 T-cell engager 06 (bispecific antibody)
chain: B6 chain with F223L
B8: CD33/CD3 2×2 T-cell engager 10 (bispecific antibody)
chain: DIQMTQSPSSLSASVGDRVTITCRSSTGAVTTSNYANWVQQKPGKAPKGLIGGTNKRAPGVPSRFSGSLIGDKATLTISSLQPEDFATYYCALWYSNLWVFGQGTKVEIKGGSGGSQVQLVQSGAEVKKPGASVKVSCKASGYTFTSYDINWVRQAPGQGLEWMGWMNPNSGNTGFAQKFQGRVTMTRDTSTSTVYMELSSLRSEDTAVYYCARDRANTDYSFGMDVWGQGTLVTVSSGGSGQSVLTQPPSASGTPGQRVTISCSGSRSNIGSNTVNWYQQLPGTAPKLLIYGNNQRPSGVPDRFSGSKSGTSASLAISGLQSEDEADYYCATWDDSLIGWVFGGGTKLTVLGGSGGSEVQLVESGGGLVQPGGSLRLSCAASGFTFSTYAMNWVRQAPGKGLEWVGRIRSKYNNYATYYADSVKDRFTISRDDSKNSLYLQMNSLKTEDTAVYYCARHGNFGNSYVSWFAYWGQGTLVTVSSAAAGSHHHHHH
B9: CD33/CD3 2×2 T-cell engager 03 (bispecific antibody)
chain: B8 chain with S63A, L69G, I70S, D72T, K73D, A74F
B10: CD33/CD3 2×2 T-cell engager 04 (bispecific antibody)
chain: B8 chain with S63A, L69G, I70S, D72T, K73D, A74F, F223L
B11: CD33/CD3 2×2 T-cell engager 09 (bispecific antibody)
chain: B8 chain with Y221F, F223Y
B12: CD33/CD3 2×2 T-cell engager 01 (bispecific antibody)
chain: B8 chain with S63A, L69G, I70S, D72T, K73D, A74F, Y221F, F223Y
B13: CD33/CD3 2×2 T-cell engager 15 (bispecific antibody)
chain: B8 chain with G49A, W469Y
B14: CD33/CD3 2×2 T-cell engager 11 (bispecific antibody)
chain: B8 chain with F223L
B15: CD33/CD3 2×2 T-cell engager 02 (bispecific antibody)
chain: B8 chain with S63A, L69G, I70S, D72T, K73D, A74F, N218V, S222Y, F223Y
B16: CD33/CD3 2×2 T-cell engager 13 (bispecific antibody)
chain: B8 chain with D72T, K73D, A74F, N218V, S222Y, F223Y
B17: CD33/CD3 2×2 T-cell engager 23 (bispecific antibody)
chain: DIQMTQSPSSLSASVGDRVTITCRSSTGAVTTSNYANWVQQKPGKAPKGLIGGTNKRAPGVPSRFSGSLIGTDFTLTISSLQPEDFATYYCALWYSNLWVFGQGTKVEIKGGSGGSQVQLVQSGAEVKKPGSSVKVSCKASGGTFSSYGISWVRQAPGQGLEWMGGIIPIFGSAHYAQKFQGRVTITADESTSTAYMELSSLRSEDTAVYYCAREYYYDSSEWAFDIWGQGTLVTVSSGGSGQSVLTQPPSASGTPGQRVTISCSGSSSNIGSNTVKWYQQLPGTAPKLLIYSNNQRSSGVPDRFSGSKSGSSASLAISGLQSEDEADYYCAAWDDSLNGYVFGGGTKLTVLGGSGGSEVQLVESGGGLVQPGGSLRLSCAASGFTFSTYAMNWVRQAPGKGLEWVGRIRSKYNNYATYYADSVKDRFTISRDDSKNSLYLQMNSLKTEDTAVYYCARHGNFGNSYVSWFAYWGQGTLVTVSS
B18: CD33/CD3 2×2 T-cell engager 07 (bispecific antibody)
chain: DIQMTQSPSSLSASVGDRVTITCRSSTGAVTTSNYANWVQQKPGKAPKALIGGTNKRAPGVPSRFSGSLIGDKATLTISSLQPEDFATYYCALWYSNLWVFGQGTKVEIKGGSGGSQVQLQESGGGVVQPGRSLRLSCAASGFSFSNYGIHWVRQAPGKGLEWVALISYDGNKKFYADSVKGRFAISRDTSKNTVDLQMTSLRPEDTAVYYCAKDRLESAAFDYWGQGTLVTVSSGGSGGSSYELTQPPSVSVAPGQTAMITCGGNNIGSTTVHWYQQKPGQAPVLVVYDDNERPSGIPERFSGSNSGSTATLTINRVEAGDEADYYCQVWDSGSDHVVFGGGTKLTVLGGSGGSEVQLVESGGGLVQPGGSLRLSCAASGFTFSTYAMNWVRQAPGKGLEWVGRIRSKYNNYATYYADSVKDRFTISRDDSKNSLYLQMNSLKTEDTAVYYCARHGNFGNSYVSYFAYWGQGTLVTVSSAAAGSHHHHHH

Sequence of human CD3 (P07766 23-207, chain 1 of 4): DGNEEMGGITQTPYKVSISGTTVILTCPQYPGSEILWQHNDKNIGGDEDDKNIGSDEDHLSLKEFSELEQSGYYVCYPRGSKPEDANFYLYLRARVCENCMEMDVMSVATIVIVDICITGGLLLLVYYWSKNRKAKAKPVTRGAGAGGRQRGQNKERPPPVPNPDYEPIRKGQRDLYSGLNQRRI
Sequence of human CD3 (P09693 23-182, chain 2 of 4): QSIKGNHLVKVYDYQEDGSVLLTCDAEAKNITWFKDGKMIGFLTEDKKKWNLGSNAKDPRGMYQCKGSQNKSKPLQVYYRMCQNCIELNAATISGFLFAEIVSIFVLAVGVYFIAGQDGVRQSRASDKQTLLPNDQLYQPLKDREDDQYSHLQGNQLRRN
Sequence of human CD3 (P04234 22-171, chain 3 of 4): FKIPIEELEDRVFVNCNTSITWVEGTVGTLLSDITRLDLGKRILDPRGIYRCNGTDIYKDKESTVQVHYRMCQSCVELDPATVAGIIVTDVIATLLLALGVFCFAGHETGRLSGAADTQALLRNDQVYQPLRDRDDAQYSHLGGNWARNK
Sequence of human CD3 (P20963 22-164, chain 4 of 4): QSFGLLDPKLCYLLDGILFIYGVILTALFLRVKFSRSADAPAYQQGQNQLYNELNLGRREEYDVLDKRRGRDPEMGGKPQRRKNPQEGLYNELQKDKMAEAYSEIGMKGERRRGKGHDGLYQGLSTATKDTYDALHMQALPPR

This test has as its target human CD3 (human, UniProt P07766 23-207; P09693 23-182; P04234 22-171; P20963 22-164). The test is described as follows: cell-based or functional assay.
As to B1, the “CD25 Induction EC50 (PBMC, 24 h)” value was 0.03 nM and the “CD69 Induction EC50 (PBMC, 24 h)” value was found to be 0.114 nM. For B2, the “CD25 Induction EC50 (PBMC, 24 h)” value was 0.098 nM and the “CD69 Induction EC50 (PBMC, 24 h)” value turned out to be 0.075 nM. As for B3, the “CD69 Induction EC50 (PBMC, 24 h)” value stood at 0.225 nM. B4: the “CD69 Induction EC50 (PBMC, 24 h)” value was found to be 0.057 nM. With B5, the “CD25 Induction EC50 (PBMC, 24 h)” value turned out to be 0.01 nM and the “CD69 Induction EC50 (PBMC, 24 h)” value stood at 0.004 nM.

For B6, the “CD25 Induction EC50 (PBMC, 24 h)” value was determined as 0.116 nM and the “CD69 Induction EC50 (PBMC, 24 h)” value stood at 0.074 nM. Take B7: the “CD25 Induction EC50 (PBMC, 24 h)” value came to 0.039 nM and the “CD69 Induction EC50 (PBMC, 24 h)” value was 0.021 nM. As for B8, the “CD25 Induction EC50 (PBMC, 24 h)” value came to 0.01 nM and the “CD69 Induction EC50 (PBMC, 24 h)” value was 0.006 nM. The like results for B9 were, in that order, 0.117 nM and 0.087 nM. Regarding B10, the “CD25 Induction EC50 (PBMC, 24 h)” value came to 0.094 nM and the “CD69 Induction EC50 (PBMC, 24 h)” value was 0.062 nM.

On to B11, for which the “CD25 Induction EC50 (PBMC, 24 h)” value came to 0.011 nM and the “CD69 Induction EC50 (PBMC, 24 h)” value was found to be 0.007 nM.

Take B12: the “CD25 Induction EC50 (PBMC, 24 h)” value was 0.092 nM and the “CD69 Induction EC50 (PBMC, 24 h)” value was 0.091 nM. In the same order, the values of B13 are 0.006 nM and 0.007 nM. In the same order, the values of B14 are 0.011 nM and 0.005 nM. The like results for B15 were, in that order, 0.042 nM and 0.027 nM.

B16: the “CD25 Induction EC50 (PBMC, 24 h)” value was 0.03 nM and the “CD69 Induction EC50 (PBMC, 24 h)” value amounted to 0.022 nM. The like results for B17 were, in that order, 0.041 nM and 0.017 nM.

With B18, the “CD25 Induction EC50 (PBMC, 24 h)” value was determined as 0.134 nM and the “CD69 Induction EC50 (PBMC, 24 h)” value was 0.065 nM.
